Results on five substances are retold here after paper PMC10578477, “Biochemical and genetic dissection of the RNA-binding surface of the FinO domain of Escherichia coli ProQ”.

What all share (assay): EMSA
Common to all, as to settings: EMSA: 25 mM Tris pH 7.5, 150 mM NaCl, 5% glycerol, 1 mM MgCl2, 1 nM 32P-RNA, 30 min RT; microplates pretreated with 0.0025% BSA; 6% gel in 0.5x TBE at 4 C
For orientation: A gel shift assay detects complexes by their altered migration in electrophoresis.

The target in series [1] is T1, ProQ NTD Y70F Y70F (Escherichia coli) (UniProt P45577).
T1 sequence: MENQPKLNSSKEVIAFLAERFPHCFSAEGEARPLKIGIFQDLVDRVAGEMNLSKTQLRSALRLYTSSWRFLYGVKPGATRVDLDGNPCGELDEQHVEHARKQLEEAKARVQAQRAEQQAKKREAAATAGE

Series [2] addresses T2, ProQ NTD D41A D41A (Escherichia coli) (UniProt P45577).
T2 sequence: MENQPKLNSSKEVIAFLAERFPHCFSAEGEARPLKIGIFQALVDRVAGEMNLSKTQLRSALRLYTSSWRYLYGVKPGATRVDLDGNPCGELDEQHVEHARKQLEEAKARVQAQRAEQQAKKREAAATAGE

In series [3] the target is T3, ProQ NTD R62A R62A (Escherichia coli) (UniProt P45577).
T3 sequence: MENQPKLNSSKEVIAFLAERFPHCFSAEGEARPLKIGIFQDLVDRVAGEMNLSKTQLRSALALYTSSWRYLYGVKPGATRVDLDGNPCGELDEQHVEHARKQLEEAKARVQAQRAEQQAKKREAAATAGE

In series [4] the target is T4, ProQ NTD R32A R32A (Escherichia coli) (UniProt P45577).
T4 sequence: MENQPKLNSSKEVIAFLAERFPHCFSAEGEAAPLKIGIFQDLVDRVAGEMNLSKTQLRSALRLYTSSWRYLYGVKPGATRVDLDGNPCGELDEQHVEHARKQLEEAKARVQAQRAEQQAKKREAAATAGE

The target in series [5] is T5, ProQ NTD K35A K35A (Escherichia coli) (UniProt P45577).
T5 sequence: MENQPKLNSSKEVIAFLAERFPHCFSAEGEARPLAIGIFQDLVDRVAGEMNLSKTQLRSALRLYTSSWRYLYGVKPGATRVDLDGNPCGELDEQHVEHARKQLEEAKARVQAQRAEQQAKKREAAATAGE

Series [6] concerns the target T6, ProQ NTD T65A T65A (Escherichia coli) (UniProt P45577).
T6 sequence: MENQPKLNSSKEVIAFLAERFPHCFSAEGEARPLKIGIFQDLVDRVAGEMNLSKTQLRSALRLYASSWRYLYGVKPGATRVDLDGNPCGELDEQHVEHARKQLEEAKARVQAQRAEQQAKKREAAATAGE

Series [7] concerns the target T7, ProQ NTD K54A K54A (Escherichia coli) (UniProt P45577).
T7 sequence: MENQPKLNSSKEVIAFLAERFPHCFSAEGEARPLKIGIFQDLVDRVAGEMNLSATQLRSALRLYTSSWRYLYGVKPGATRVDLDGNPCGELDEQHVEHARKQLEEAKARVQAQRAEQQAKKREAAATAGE

Series [8] deals with T8, ProQ NTD R58A R58A (Escherichia coli) (UniProt P45577).
T8 sequence: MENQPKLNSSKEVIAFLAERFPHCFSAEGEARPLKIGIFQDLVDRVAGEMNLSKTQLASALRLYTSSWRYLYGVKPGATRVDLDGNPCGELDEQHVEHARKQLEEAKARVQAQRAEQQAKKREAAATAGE

In series [9] the target is T9, ProQ NTD R69A R69A (Escherichia coli) (UniProt P45577).
T9 sequence: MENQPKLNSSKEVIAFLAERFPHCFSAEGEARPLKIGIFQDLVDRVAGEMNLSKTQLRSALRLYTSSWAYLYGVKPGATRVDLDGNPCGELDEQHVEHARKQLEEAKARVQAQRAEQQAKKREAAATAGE

Bounds are passed on as bounds.

For the substance malM-3', the binding signal is less than 20 % max bound in [1], 25 % max bound in series [3], 70 % max bound in series [5] and 30 % max bound in series [7]. Besides, the binding signal (fold weaker Kd than WT) in series [2] stood at 3; in series [4], 1; in [6], 2. In [8], the Kd (as a rule, a measure of binding affinity in units of concentration) is greater than 1 µM.

As to SibB, the binding signal (fold weaker Kd than WT) was greater than 5 in series [2], 3 in series [4] and 4 in series [6]. The equilibrium dissociation constant (Kd) in [5] and in series [8] was greater than 1 µM each time.

For cspE81-3', the binding signal in series [1] is less than 20 % max bound; in [3] it was less than 20 % max bound; in series [7], 30 % max bound. In addition, the binding signal (fold weaker Kd than WT) in series [2] and in [6] was 2 each time. The Kd in series [8] was greater than 1 µM.

Consider RybB, for which the results for the binding signal in [9] and in series [7] were less than 40 % max bound and less than 20 % max bound, respectively. Also, the binding signal (fold weaker Kd than WT) in [2] is 2; in series [6] it was 1. For the same substance, the Kd in series [8] is greater than 1 µM.

Consider gapA-3', for which the binding signal (fold weaker Kd than WT) in series [2], in series [4] and in series [6] was 1 in each case. For the same substance, the binding signal in series [3] and in series [7] was less than 20 % max bound in each case. Further, the Kd in series [8] was greater than 1 µM.
